In paper PMC5458252, “Niclosamide is a potential therapeutic for familial adenomatosis polyposis by disrupting Axin-GSK3 interaction” (Oncotarget, 2017):

Target: T1, His-tagged recombinant GSK3β (UniProt P49841 1-420)
T1 construct: GSK3β, recombinant; source: sf9 insect cells, recombinant, purified
Experiment: SPR; ProteOn XPR36; GSK3β immobilised on a GLH sensor chip; peptides in PBS with Tween 20 and 1% DMSO flowed at 100 μl/min; Langmuir model
Settings: both partners purified

T1 sequence (P49841 whole entry): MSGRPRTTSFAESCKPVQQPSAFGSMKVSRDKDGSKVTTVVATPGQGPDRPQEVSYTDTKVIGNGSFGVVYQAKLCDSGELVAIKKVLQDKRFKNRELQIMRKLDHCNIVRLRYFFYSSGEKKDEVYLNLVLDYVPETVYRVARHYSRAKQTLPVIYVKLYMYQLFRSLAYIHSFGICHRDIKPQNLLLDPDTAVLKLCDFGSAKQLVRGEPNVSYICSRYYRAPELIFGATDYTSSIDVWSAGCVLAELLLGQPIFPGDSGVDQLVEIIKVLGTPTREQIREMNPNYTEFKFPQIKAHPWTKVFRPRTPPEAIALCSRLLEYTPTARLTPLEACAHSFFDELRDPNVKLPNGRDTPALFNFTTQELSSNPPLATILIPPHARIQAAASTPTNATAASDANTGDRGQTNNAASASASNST

Kd: 11.9 µM
B1: 19-mer wild type Axin peptide (peptide)
peptide: VEPQKFAEELIHRLEAVQR
notes: Axin1, residues 383-401; source: synthetic peptide
